Values belong to the molecule of their own block, whether it stands above or below them.
Key:
[1] = target: IL13RA2 on tumor cell lines (U251MG.Luc, U87MG.Luc, U87MG.Luc clone2, U138MG.Luc, A375.Luc) (UniProt Q14627); test: cell-based or functional assay
[2] = target: T1, recombinant human IL13RA2 (human, UniProt Q14627 27-343); test: phage ELISA on plates coated with recombinant human IL13RA2, anti-M13-HRP, A450
T1 construct: Coating antigen of the phage ELISA screen; The immunogen was ACRO Cat. No. IL2-H52H5; also called antigen proteins
T1 sequence (looked up): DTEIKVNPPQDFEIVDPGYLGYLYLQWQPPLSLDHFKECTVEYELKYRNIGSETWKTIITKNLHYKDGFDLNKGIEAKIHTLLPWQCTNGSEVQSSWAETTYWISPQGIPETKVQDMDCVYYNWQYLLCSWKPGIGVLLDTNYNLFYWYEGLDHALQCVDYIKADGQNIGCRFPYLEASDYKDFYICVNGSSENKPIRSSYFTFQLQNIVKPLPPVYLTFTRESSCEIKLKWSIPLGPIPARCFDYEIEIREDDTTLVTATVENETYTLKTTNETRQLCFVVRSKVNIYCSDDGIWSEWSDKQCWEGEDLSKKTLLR
Method: Individual output phage clones were grown in 96-deep-well plates and rescued by M13KO7 helper phage overnight. To identify clones that bound to antigen proteins, 96-well ELISA microtiter plates were coated with recombinant human IL13RA2 in coating buffer overnight at 4° C., and the plates were then blocked with blocking buffer. After blocking, approximately 50 µL per well of phage supernatant from overnight cell culture was added to the plates for 1.5-hour incubation at 4° C. The plates were washed four times, and the HRP-conjugated anti-M13 monoclonal antibody was added to the plates for 45-minute incubation at 4° C. The plates were again washed five times and substrate solution was added to the wells for color developing. Absorbance at 450 nm was measured for each well.

[3] = target: T2, Recombinant IL13RA2-His protein (Sino Biological, Cat #10350-H08H) (human, UniProt Q14627 27-343); test: SPR, Biacore 2000; VHH-mIgG1Fc coupled to CM5 chip, IL13RA2-His injected; 1:1 Langmuir fit
T2 construct: Bought protein; also called human IL13RA2 his-tag protein; IL13AR2; not shown: His tag
T2 sequence (looked up): T1 sequence (looked up)
Method: The affinity of each VHH-mIgG1Fc for IL13AR2 was determined by SPR using a BIACORE® 2000 analytical system (GE Healthcare). Briefly, each VHH-mIgG1Fc protein was covalently coupled to a CM5(s) sensor chip using 4 μg/ml VHH-mIgG1Fc. Recombinant IL13RA2-His protein (Sino Biological, Cat #10350-H08H) was serially diluted in running buffer (10 mM HEPES, 150 mM NaCl, 3 mM EDTA, 0.05% Tween-20, pH 7.4) and injected at a flowrate of 10 μl/min followed by dissociation. The association and dissociation rate constants were determined using the BIACORE® 2000 evaluation software version 3.0 (Langmuir binding, local fit, 1:1 binding model).

B2: VHH1353 (VHH)
VHH: EVQLVESGGGSVQAGGSLRLSCAASGYTSSTNCMGWFRQAPGKEREGVASIRGTGGSTYYADSVKGRFTISRDDGKNTLYLQMNSLKPEDTAMYYCAAATGTSFSEARCVTAPPYKYPYWGQGTQVTVSS
binding result [2]: binds

B3: VHH1343 (VHH)
VHH: QVKLEESGGGSVQAGGSLKLSCAASGYNFSKCGMGWFRRALREERELVAEISNDGTTTYDDSVKGRFTISRDNVKNTVYLQMNNLKTEDTAVYYCASRNPCGLLWGQGTQVTVSS
binding result [2]: binds

B4: VHH1330-(GGGGS)2-VHH1345-mIgG1Fc (Fc fusion)
chain: QVQLVESGGGLVQPGGSLTLSCAASGYRISLYKMGWFRQDPGKQREGVAAVDRNGRTIYADSVKGRFTIYQDNAKNTLDLQMNSLKPEDTAMYYCAADLWRIGSPASLSPTDYGDWGQGTQVTVSSGGGGSGGGGSAVQLVDSGGGSAQVGGSLKLSCTASGYIFSSCGMGWYRQAPGKKREFVTSVSKYGTTTYPDSVKGRFTISLDNAKNTAYLQMNSLKIEDTAVYYCTTLASRGTTCPASVYSGPGTQVTVSSVPRDCGCKPCICTVPEVSSVFIFPPKPKDVLTITLTPKVTCVVVDISKDDPEVQFSWFVDDVEVHTAQTQPREEQFNSTFRSVSELPIMHQDWLNGKEFKCRVNSAAFPAPIEKTISKTKGRPKAPQVYTIPPPKEQMAKDKVSLTCMITDFFPEDITVEWQWNGQPAENYKNTQPIMNTNGSYFVYSKLNVQKSNWEAGNTFTCSVLHEGLHNHHTEKSLSHSPGK
notes: Two VHH domains joined by (GGGGS)2 and fused to mouse IgG1 Fc; also called bi-VHH-mIgG1Fc; bi-VHH chimeric anti-IL13RA2 antibody
Kd [3]: 0.71 nM | koff [3]: 5.4e-05 s⁻¹ | kon [3]: 75000 M⁻¹ s⁻¹

B7: VHH1345-mIgG1Fc (Fc fusion)
chain: AVQLVDSGGGSAQVGGSLKLSCTASGYIFSSCGMGWYRQAPGKKREFVTSVSKYGTTTYPDSVKGRFTISLDNAKNTAYLQMNSLKIEDTAVYYCTTLASRGTTCPASVYSGPGTQVTVSSVPRDCGCKPCICTVPEVSSVFIFPPKPKDVLTITLTPKVTCVVVDISKDDPEVQFSWFVDDVEVHTAQTQPREEQFNSTFRSVSELPIMHQDWLNGKEFKCRVNSAAFPAPIEKTISKTKGRPKAPQVYTIPPPKEQMAKDKVSLTCMITDFFPEDITVEWQWNGQPAENYKNTQPIMNTNGSYFVYSKLNVQKSNWEAGNTFTCSVLHEGLHNHHTEKSLSHSPGK
notes: also called VHH-mIgG1Fc chimeric antibody; single VHH chimeric anti-IL13RA2 antibody
Kd [3]: 14 nM | koff [3]: 0.00045 s⁻¹ | kon [3]: 33000 M⁻¹ s⁻¹

B8: VHH1366 (VHH)
VHH: QVKLEESGGGSVEAGGSLKLSCAGFGDMFSSCGMGWYRQAPGKEREMVSRISPRGTSITIDSVRGRFTISRDNAKNTLALEMNSLKIEDTAVYYCAAGGDSASRTPRCRSLNWGQGTQVTVSS
binding result [2]: binds

Continued, values first:

IFNγ release level, CAR-T co-cultured with U87MG.Luc (UnT 80) [1]: 580 pg/mL | IFNγ release level, CAR-T co-cultured with U138MG.Luc (UnT 70) [1]: 252 pg/mL | IFNγ release level, CAR-T co-cultured with U251MG.Luc (UnT 196) [1]: 4360 pg/mL
Molecule: IL13-E13Y CAR (from UniProt P35225 35-146)

binding result [2]: binds
B1: VHH2110 (VHH)
VHH: QVKLEESGGGSVQAGGSLRLSCAASGIPTRTLFMGWFRQAPGKEREEVARISDNGNTGYADFVKGRFTISKDNSKNTLYLQMSSLKPDDTAMYYCSARRASYSATVLWGQGTQVTVSS

binding result [2]: binds
B5: VHH1354 (VHH)
VHH: AVQLVDSGGGLVQPGGSLRLSCAASGFTFSTYGMSWVRQPPGKGLEWVSGISPGGDHTTYADSVKGRFTISRDNAKNTLYLQLSSLKTEDTAMYYCTTVPGRSRYGNYNPRGQGTQVTVSS

Kd [3]: 60 nM | koff [3]: 0.0022 s⁻¹ | kon [3]: 37000 M⁻¹ s⁻¹
B6: VHH1330-mIgG1Fc (Fc fusion)
chain: QVQLVESGGGLVQPGGSLTLSCAASGYRISLYKMGWFRQDPGKQREGVAAVDRNGRTIYADSVKGRFTIYQDNAKNTLDLQMNSLKPEDTAMYYCAADLWRIGSPASLSPTDYGDWGQGTQVTVSSVPRDCGCKPCICTVPEVSSVFIFPPKPKDVLTITLTPKVTCVVVDISKDDPEVQFSWFVDDVEVHTAQTQPREEQFNSTFRSVSELPIMHQDWLNGKEFKCRVNSAAFPAPIEKTISKTKGRPKAPQVYTIPPPKEQMAKDKVSLTCMITDFFPEDITVEWQWNGQPAENYKNTQPIMNTNGSYFVYSKLNVQKSNWEAGNTFTCSVLHEGLHNHHTEKSLSHSPGK
notes: as for B7

binding result [2]: binds
B9: VHH1339 (VHH)
VHH: EVQLVESGGGSVQAGGSLKLSCAASGDIFSMCGMGWYRQAPGKQREMVSRISPRGTAIYPDSLKGRFTVSRDNAKNTLYLQMNSLNTEDTAVYYCAAGGDSASRTPHCRSLNWGQGTQVTVSS

From patent US20260151429A1 (NANJING LEGEND BIOTECH, published 2026)
